Tests used:
[1] = system: HCT116 human colorectal tumour cells; experiment: FACS binding to cell surface heparanase, HCT116; assay type: cell-based; details: 5 or 10 μg per ml, 2 hrs at 37° C.
Protocol: (§1) Although heparanase is found as a secreted protein, a proportion of heparanase is found in conjunction with cell surface heparan sulfate. The ability of anti-human heparanase antibodies to bind to cell surface heparanase was tested in a FACS assay. HT1080 human fibrosarcoma cells, HCT116 human colorectal tumour cells and B16F10 AP3 murine melanoma cells were each seeded into 6-well plates and cultured for 48 hrs prior to the addition of anti-heparanase antibody 10E9.1 or control IgG2 antibody (Sigma Cat. No. 1504-1MG). Antibodies were added to the cells to a final concentration of 5 or 10 μg per ml and incubated with the cells for 2 hrs at 37° C. The cells were then washed with phosphate buffered saline (PBS) and harvested by incubation with trypsin. The cells were pelleted by centrifugation and resuspended in 0.5 ml PBS, 0.1% BSA containing 1/200 dilution of AlexaFluor 488 anti-human IgG. The cells were incubated for 1 hr at room temperature, washed with PBS/BSA, resuspended in PBS and analysed by FACS. […] The differences likely reflect a lower affinity for murine heparanase in addition to any differences in absolute heparanase expression.

MCF7-Hpa1#19 xenograft = experiment: Subcutaneous xenograft tumour growth, MCF7-Hpa1#19; assay type: in vivo, SCID mice; details: once weekly i.p.; 10E9.1 at 7.5 or 15 mg per kg
Protocol: MCF7-Hpa1#19 and HCT116 tumour cells were harvested from sub-confluent cultures. A total of 5×10^6 (MCF7-Hpa1#19) or 10^7 (HCT116) tumour cells were inoculated subcutaneously into the flank of male SCID mice. HCT116 tumour cells were implanted in PBS; […] cells were implanted in PBS containing 50% matrigel.
When tumours had attained ˜200 mm^3, tumour bearing mice were randomised into treatment groups and dosed with the following; PBS; an isotype matched control IgG2 antibody, 15 mg per kg; anti-heparanase antibody 10E9.1, 7.5 or 15 mg per kg. All treatments were administered once weekly i.p. Tumour growth was measured twice per week using calipers and tumour volumes calculated according to an ellipsoid volume is formula (3.142/6×length×width×width) from measures of the largest tumour diameter and two opposing widths (FIG. 11).

MDA MB231-Hpa1#4 cells = experiment: Heparanase expression in cells cultured with antibody (Western blot); assay type: cell-based, human; details: 25 μg per ml antibody, 72 hrs, compared to untreated or IgG2 control
Protocol: MDA MB231-Hpa1#4 cells were cultured in the presence of 25 μg per ml anti-human heparanase antibody or control IgG2 antibody (Sigma Cat. No. 1504-1MG) for 72 hrs. Following the removal of culture medium, protein extracts were prepared from the cells in 100 μl RIPA buffer and separated on […] gels and transferred to nitrocellulose as described above. Western blots were probed with an anti-heparanase antibody that detected only pro-heparanase (SantaCruz Cat. No. SC25825).

[2] = system: B16F10 AP3 murine melanoma cells; experiment: FACS binding to cell surface heparanase, B16F10 AP3; assay type: cell-based; details: 5 or 10 μg per ml, 2 hrs at 37° C.
Protocol: as §1

[3] = system: precursor (65 kDa) and active (50 kDa) heparanase; experiment: Immunoprecipitation and Western blotting of heparanase from cell lysates; assay type: binding, human; details: 10 μg antibody, 400 μg lysate, MCF7 and MDA MB231 parental and heparanase transfected cells
Protocol: Briefly, protein lysates (400 μg in RIPA lysis buffer—137 mM NaCl, 20 mM Tris pH7.4, 10% glycerol, 1% Triton, 0.5% Sodium deoxycholate, 0.1% SDS, 2 mM EDTA, 1 mM dithiothreitol, 4 mM pefabloc, 10 mM glycerol-2-phosphate, 5 mM NaF and protease inhibitor cocktail) from both parental and heparanase transfected cells were incubated with 10 μg IgG2 control or anti-heparanase (10E9.1) antibodies for 1 hour at 4° C. Following immunoprecipitation with protein G agarose beads and washing with RIPA buffer, samples were separated on 10% bis-tris gels and transferred to nitrocellulose for Western blotting. Heparanase was detected using an anti-heparanase polyclonal antibody (Biochain Cat. No. Z5010104), that recognises both precursor and active heparanase.

B1: 10E9.1: fully human anti-heparanase monoclonal antibody, G2κ; VH SEQ ID NO 2, VL SEQ ID NO 4; ATCC PTA-9489 (antibody, listed as Homo Sapiens, V domains shown)
VH: QVQLVQSGAEVKKPGASVKVSCKVSGYSLTELSIHWVRQAPGKGLEWMGGFDPEDGEIIFAQKFQGRVTLTEDISLDTAYMEVSSLRSEDTAVYYCATEGHDSGDYVGYYYYGLDVWGQGTTVTVSS
VL: DIQMTQSPSSLSASVGDRVTITCRASQDIRNFLAWYQQKPGKLPKLLIYAASTLQSGVPSRFSGSGSGTDFTLTISSLQPEDVASYYCQSHNSVPFTFGPGTKVDIR
notes: fully human anti-heparanase monoclonal antibody, G2κ; ATCC PTA-9489
With B1 the “Binding to cells by FACS” value [1] was “bind extensively”, the Tumour growth inhibition (MCF7-Hpa1#19 xenograft) was “not inhibited” and the “Inhibition of heparanase expression” value (MDA MB231-Hpa1#4 cells) was “significant inhibition of heparanase expression”. For the same molecule, the “Binding to cell surface by FACS” value [2] was “bind to the cell surface of B16F10 AP3 murine melanoma cells” and the “Immunoprecipitation of heparanase from cell lysates” value [3] was “immunoprecipitation of both precursor and active forms of heparanase”.
